Laboratory results published in US20250152746A1, “BASE EDITING OF ANGPTL3 AND METHODS OF USING SAME FOR TREATMENT OF DISEASE” (Verve Therapeutics, Inc., priority 2020, published 2025).
In the oligonucleotide strings, read from the 5' end, every base follows the letter of its sugar. An asterisk marks phosphorothioate; unmarked linkages are phosphodiester. Other units and linkages are bracketed, terminal groups are in braces. A string of capitals states the bases alone. m = 2'-O-methyl; r = 2'-OH (RNA)

Experiments:
PCSK9 gene [1] = assay: PCSK9 gRNA/SpCas9 editing in primary human hepatocytes (Tables 2, 4); assay type: cell-based; conditions: SpCas9 mRNA MS002 1:1 by weight; for Human Primary Hepatocyte Editing % 100: 100 ng/RNA/mL; for Human Primary Hepatocyte Editing % 500: 500 ng/RNA/mL; for Human Primary Hepatocyte Editing % 2500: 2500 ng/RNA/mL
In short: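 Primary human hepatocytes co-transfected with PCSK9 gRNA plus SpCas9 mRNA (1:1 by weight) at 2500, 500 or 100 ng RNA/mL, or 2500–250 ng/mL for tracr-modified guides. Editing at the target site read by amplicon next-generation sequencing of extracted genomic DNA.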

PCSK9 gene [2] = assay: PCSK9 gRNA/SpCas9 editing in primary cynomolgus hepatocytes (Tables 2, 22); assay type: cell-based, cynomolgus monkey; conditions: SpCas9 mRNA MS002 1:1 by weight; for Cyno Primary Hepatocyte Editing % 100: 100 ng/RNA/mL; for Cyno Primary Hepatocyte Editing % 500: 500 ng/RNA/mL; for Cyno Primary Hepatocyte Editing % 2500: 2500 ng/RNA/mL

Molecule | Human Primary Hepatocyte Editing % 100 (PCSK9 gene [1]) | Human Primary Hepatocyte Editing % 500 (PCSK9 gene [1]) | Human Primary Hepatocyte Editing % 2500 (PCSK9 gene [1]) | Cyno Primary Hepatocyte Editing % 100 (PCSK9 gene [2]) | Cyno Primary Hepatocyte Editing % 500 (PCSK9 gene [2]) | Cyno Primary Hepatocyte Editing % 2500 (PCSK9 gene [2])
GA186: PCSK9 gRNA; protospacer CTCATCTTCACCAGGAAGCC (SEQ ID NO: 180) (nucleic acid) guide: mC*mU*mC*rArUrCrUrUrCrArCrCrArGrGrArArGrCrCrGrUrUrUrUrArGrArGrCrUrArGrArArArUrArGrCrArArGrUrUrArArArArUrArArGrGrCrUrArGrUrCrCrGrUrUrArUrCrArArCrUrUrGrArArArArArGrUrGrGrCrArCrCrGrArGrUrCrGrGrUrGrCrU*mU*mU*mU | 0.79% | 3.57% | 12.01% | 1.96% | 7.59% | 33.48%
GA174: PCSK9 gRNA; protospacer GGATCTTGGTGAGGTATCCC (SEQ ID NO: 168) (nucleic acid, sugars from the 5' end m3 r94 m3, linkages s3 o93 s3 (s phosphorothioate, o phosphodiester), T or U not given here) guide: GGAUCUUGGUGAGGUAUCCCGUUUUAGAGCUAGAAAUAGCAAGUUAAAAUAAGGCUAGUCCGUUAUCAACUUGAAAAAGUGGCACCGAGUCGGUGCUUUU | 1.18% | 5.24% | 14.74% | 1.60% | 4.88% | 18.65%
GA180: PCSK9 gRNA; protospacer GCGCACTGCCCGCCGCCTGC (SEQ ID NO: 174) (nucleic acid) guide: mG*mC*mG*rCrArCrUrGrCrCrCrGrCrCrGrCrCrUrGrCrGrUrUrUrUrArGrArGrCrUrArGrArArArUrArGrCrArArGrUrUrArArArArUrArArGrGrCrUrArGrUrCrCrGrUrUrArUrCrArArCrUrUrGrArArArArArGrUrGrGrCrArCrCrGrArGrUrCrGrGrUrGrCrU*mU*mU*mU | 0.22% | 2.22% | 17.16% | 0.91% | 2.45% | 14.12%
GA182: PCSK9 gRNA; protospacer CACCTACGTGGTGGTGCTGA (SEQ ID NO: 176) (nucleic acid) guide: mC*mA*mC*rCrUrArCrGrUrGrGrUrGrGrUrGrCrUrGrArGrUrUrUrUrArGrArGrCrUrArGrArArArUrArGrCrArArGrUrUrArArArArUrArArGrGrCrUrArGrUrCrCrGrUrUrArUrCrArArCrUrUrGrArArArArArGrUrGrGrCrArCrCrGrArGrUrCrGrGrUrGrCrU*mU*mU*mU | 0.95% | 4.49% | 17.44% | 1.55% | 6.14% | 22.89%
GA184: PCSK9 gRNA; protospacer ATGGAAGACATGCAGGATCT (SEQ ID NO: 178) (nucleic acid) guide: mA*mU*mG*rGrArArGrArCrArUrGrCrArGrGrArUrCrUrGrUrUrUrUrArGrArGrCrUrArGrArArArUrArGrCrArArGrUrUrArArArArUrArArGrGrCrUrArGrUrCrCrGrUrUrArUrCrArArCrUrUrGrArArArArArGrUrGrGrCrArCrCrGrArGrUrCrGrGrUrGrCrU*mU*mU*mU | 2.65% | 8.29% | 29.55% | 2.90% | 10.54% | 31.87%
GA177: PCSK9 gRNA; protospacer GGTCGCCACTCATCTTCACC (SEQ ID NO: 171) (nucleic acid, sugars from the 5' end m3 r94 m3, linkages s3 o93 s3 (s phosphorothioate, o phosphodiester), T or U not given here) guide: GGUCGCCACUCAUCUUCACCGUUUUAGAGCUAGAAAUAGCAAGUUAAAAUAAGGCUAGUCCGUUAUCAACUUGAAAAAGUGGCACCGAGUCGGUGCUUUU | 0.65% | 2.67% | 12.57% | 0.38% | 4.68% | 15.91%
GA183: PCSK9 gRNA; protospacer CTACGTGGTGGTGCTGAAGG (SEQ ID NO: 177) (nucleic acid) guide: mC*mU*mA*rCrGrUrGrGrUrGrGrUrGrCrUrGrArArGrGrGrUrUrUrUrArGrArGrCrUrArGrArArArUrArGrCrArArGrUrUrArArArArUrArArGrGrCrUrArGrUrCrCrGrUrUrArUrCrArArCrUrUrGrArArArArArGrUrGrGrCrArCrCrGrArGrUrCrGrGrUrGrCrU*mU*mU*mU | 2.21% | 9.89% | 32.35% | 2.87% | 15.99% | 39.56%
GA179: PCSK9 gRNA; protospacer GAGTGGCGACCTGCTGGAGC (SEQ ID NO: 173) (nucleic acid) guide: mG*mA*mG*rUrGrGrCrGrArCrCrUrGrCrUrGrGrArGrCrGrUrUrUrUrArGrArGrCrUrArGrArArArUrArGrCrArArGrUrUrArArArArUrArArGrGrCrUrArGrUrCrCrGrUrUrArUrCrArArCrUrUrGrArArArArArGrUrGrGrCrArCrCrGrArGrUrCrGrGrUrGrCrU*mU*mU*mU | 1.29% | 6% | 21.87% | 1.06% | 4.21% | 12.94%
GA181: PCSK9 gRNA; protospacer GGCTTCCTGGTGAAGATGAG (SEQ ID NO: 175) (nucleic acid) guide: mG*mG*mC*rUrUrCrCrUrGrGrUrGrArArGrArUrGrArGrGrUrUrUrUrArGrArGrCrUrArGrArArArUrArGrCrArArGrUrUrArArArArUrArArGrGrCrUrArGrUrCrCrGrUrUrArUrCrArArCrUrUrGrArArArArArGrUrGrGrCrArCrCrGrArGrUrCrGrGrUrGrCrU*mU*mU*mU | 28.87% | – | – | 3.66% | 15.43% | 45.12%
GA175: PCSK9 gRNA; protospacer GAAGATGAGTGGCGACCTGC (SEQ ID NO: 169) (nucleic acid, sugars from the 5' end m3 r94 m3, linkages s3 o93 s3 (s phosphorothioate, o phosphodiester), T or U not given here) guide: GAAGAUGAGUGGCGACCUGCGUUUUAGAGCUAGAAAUAGCAAGUUAAAAUAAGGCUAGUCCGUUAUCAACUUGAAAAAGUGGCACCGAGUCGGUGCUUUU | 1.55% | 7.53% | 24.81% | 1.45% | 12.37% | 44.77%
GA185: PCSK9 gRNA; protospacer AGACATGCAGGATCTTGGTG (SEQ ID NO: 179) (nucleic acid) guide: mA*mG*mA*rCrArUrGrCrArGrGrArUrCrUrUrGrGrUrGrGrUrUrUrUrArGrArGrCrUrArGrArArArUrArGrCrArArGrUrUrArArArArUrArArGrGrCrUrArGrUrCrCrGrUrUrArUrCrArArCrUrUrGrArArArArArGrUrGrGrCrArCrCrGrArGrUrCrGrGrUrGrCrU*mU*mU*mU | 1.6% | 10.91% | 27.98% | 1.14% | 7.75% | 20.29%
GA176: PCSK9 gRNA; protospacer AGCACCACCACGTAGGTGCC (SEQ ID NO: 170) (nucleic acid, sugars from the 5' end m3 r94 m3, linkages s3 o93 s3 (s phosphorothioate, o phosphodiester), T or U not given here) guide: AGCACCACCACGUAGGUGCCGUUUUAGAGCUAGAAAUAGCAAGUUAAAAUAAGGCUAGUCCGUUAUCAACUUGAAAAAGUGGCACCGAGUCGGUGCUUUU | 0.36% | 1.26% | 4.98% | 2.11% | 8.11% | 22.65%
GA178: PCSK9 gRNA; protospacer CTCCTTCAGCACCACCACGT (SEQ ID NO: 172) (nucleic acid) guide: mC*mU*mC*rCrUrUrCrArGrCrArCrCrArCrCrArCrGrUrGrUrUrUrUrArGrArGrCrUrArGrArArArUrArGrCrArArGrUrUrArArArArUrArArGrGrCrUrArGrUrCrCrGrUrUrArUrCrArArCrUrUrGrArArArArArGrUrGrGrCrArCrCrGrArGrUrCrGrGrUrGrCrU*mU*mU*mU | 1.26% | 5.43% | 18.29% | 2.21% | 5.78% | 25.22%
